Measured values reported in patent publication US6348586.

Target: human CCR5 transiently expressed on CCC/CD4 cells (human) (UniProt P51681)
Test: cell-based or functional assay
Details: scale: fraction of the reverse-construct negative control

Sequence of UniProt P51681 (P51681 whole entry): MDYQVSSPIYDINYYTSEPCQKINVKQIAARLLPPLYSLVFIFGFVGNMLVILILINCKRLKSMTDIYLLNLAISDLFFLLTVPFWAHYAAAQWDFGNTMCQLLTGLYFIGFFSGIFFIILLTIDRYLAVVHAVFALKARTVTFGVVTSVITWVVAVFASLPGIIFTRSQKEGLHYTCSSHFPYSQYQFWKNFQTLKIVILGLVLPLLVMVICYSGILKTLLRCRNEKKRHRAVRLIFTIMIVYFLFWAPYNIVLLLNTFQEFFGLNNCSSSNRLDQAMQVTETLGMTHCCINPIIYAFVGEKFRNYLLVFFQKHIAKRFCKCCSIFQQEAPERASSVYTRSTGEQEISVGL

KSHV viral macrophage inflammatory protein I (vMIP-I) encoded by ORF K6 (ligand)
NSI HIV-1 foci generation (immunostaining for retroviral antigen) in CCC/CD4 cells cotransfected with CCR5 and vMIP-I: < 0.5
